From patent US20130116129, “METHOD FOR DETECTING TARGET MOLECULES” (NATIONAL INSTITUTE OF ADVANCED INDUSTRIAL SCIENCE AND …, published 2013) come the findings set out here.

Changes are numbered by the printed parent chain.

The target in data set [1] is T1, streptavidin (UniProt P22629 P22629:25-183). The data set can be described thus: footprint; S1 nuclease protection; 50 mM NaCl, 20 mM MgCl2, Tris pH 7.5; ratio to control varies with streptavidin concentration. Conditions: tags: Roche (free); Dynabeads streptavidin (Invitrogen) for bead selections; chain copies: 4. The procedure: (§1) Subsequently, 1 μl of S1 nuclease (22.5 units/μl) (Takara, Japan) was added to each tube followed by 20-minutes reaction at 37° C., and then the reaction was stopped by heating at 98° C. for 3 minutes.
T1 sequence (P22629 25-183, one chain of several): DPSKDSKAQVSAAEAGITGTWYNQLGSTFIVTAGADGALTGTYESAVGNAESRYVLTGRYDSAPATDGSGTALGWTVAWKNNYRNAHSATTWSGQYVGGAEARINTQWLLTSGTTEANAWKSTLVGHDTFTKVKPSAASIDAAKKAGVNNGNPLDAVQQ
(§2) PCR was performed, using a thermal circular (Biometra), after keeping the temperature at 96° C. for 1 minute, for 1 cycle of 95° C. for 15 seconds, 46° C. for 20 seconds, and 72° C. for 60 seconds, then 40 cycles each consisting of 95° C. for 15 seconds and 72° C. for 60 seconds. As a PCR reagent, KOD-Neo-plus (Toyobo Co., Ltd., Japan) was used.
(§3) After PCR, products were digested with the Msp I restriction enzyme. […] Samples after digestion were subjected to gel electrophoresis, so that the ratio of the amount of the streptavidin aptamer to the amount of the control aptamer could be determined.

The target of data set [2] is T1, streptavidin. The data set can be described thus: footprint; stated non-binding control in S1 nuclease protection assay. Conditions: tags: Roche (free); Dynabeads streptavidin (Invitrogen) for bead selections; chain copies: 4. The procedure:
as §1, §2, §3

B1: streptavidin aptamer (ssDNA)
DNA: TCTGTGAGACGACGCACCGGTCGCAGGTTTTGTCTCACAG
On to B1, for which the binding result with streptavidin [1] was “binds”.

B2: control aptamer (ssDNA)
DNA: B1 DNA with G20A, T21C
For the molecule B2, in the data set with streptavidin [2], the binding result is “no binding”.
